1 molecule from US20050054822A1 (published 2005) can be followed below.

The assay concerns the target T1, human MARCO (macrophage receptor with a collagenous structure) (human, UniProt Q9UEW3 1-520).
T1 construct: also called HIN-2 receptor
T1 sequence: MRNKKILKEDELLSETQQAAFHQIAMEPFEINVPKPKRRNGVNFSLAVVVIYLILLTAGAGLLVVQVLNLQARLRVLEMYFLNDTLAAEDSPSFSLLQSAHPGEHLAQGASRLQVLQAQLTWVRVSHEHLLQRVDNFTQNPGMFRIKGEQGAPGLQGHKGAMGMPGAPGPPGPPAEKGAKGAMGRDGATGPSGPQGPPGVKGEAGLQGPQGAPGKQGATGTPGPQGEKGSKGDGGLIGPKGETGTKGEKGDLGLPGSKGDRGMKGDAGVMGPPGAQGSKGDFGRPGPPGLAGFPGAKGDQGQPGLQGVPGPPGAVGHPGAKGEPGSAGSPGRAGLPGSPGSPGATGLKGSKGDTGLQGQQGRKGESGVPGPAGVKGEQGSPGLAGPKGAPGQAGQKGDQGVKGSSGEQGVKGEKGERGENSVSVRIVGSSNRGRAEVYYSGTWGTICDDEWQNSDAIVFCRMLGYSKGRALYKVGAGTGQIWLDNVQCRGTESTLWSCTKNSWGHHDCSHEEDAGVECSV
Description: staining of retrovirally transduced U937 cells with FLAG-HIN-2. From the text: cDNA for both MARCO and SP-C were subcloned into the MSCV-IRES retroviral vector, which contains an IRES element followed by the gene encoding green fluorescent protein (GFP). Briefly, for MARCO, full length cDNA fragment encoding MARCO was amplified by PCR from the single MARCO expression cell clone cDNA with two primers from the human lung retroviral cDNA library (Strategene). The amplified cDNA fragment was digested with Sal I and Not I and cloned into the Xho I and Not I site of MSCV-GFP plasmid and PRK plasmids to make MSCV-MARCO and PRK-MARCO. SP-C cDNA was similarly prepared. Viruses were produced and used to infect U937 cells, and the infected cells were stained with FLAG-HIN-2. The FLAG-HIN-2 specifically stained the U937 cell line transduced with retroviruses encoding the MARCO, but no staining was detected on uninfected, MSCV-empty vector infected, or SP-C infected cells (data not shown).

B1: FLAG-HIN-2 (mature human HIN-2 with a carboxy-terminal Flag tag, secreted from 293 cells) (ligand)
chain: FLINKVPLPVDKLAPLPLDNILPFMDPLKLLLKTLGISVEHLVEGLRKCVNELGPEASEAVKKLLEALSHLV
notes: also called HIN-2-FLAG; UGRP1; not shown: C-terminal Flag tag from the PRK-C-FLAG vector; The tagged mature protein is stated to be 86 amino acids, so 14 residues
Consider B1, for which the binding result is reported as “binds”.
